From patent US7960140B2, “Avidin mutants” (Orion Diagnostica Oy, priority 2003, dated 2011)

How the values were obtained:
[1] = Dissociation assay with fluorescent biotin conjugate (ArcDia BF560); assay type: binding
Description: The biotin-binding properties of produced mutagenised dcAvds were analysed by method based on the quenching of biotin-coupled fluorescent probe ArcDia BF560 (ArcDia Ltd., Turku, Finland) due to binding to avidin (FIG. 4). PerkinElmer LS55 luminometer was used for measurements. […] The spectra of 50 nM biotin-Bf560 solution in 50 mM Na-phosphate containing 650 mM NaCl was measured (red). Chicken avidin (Belovo S. A., Bastogne, Belgium) was added to final subunit concentration of 83 nM and green spectra was obtained.
Briefly, 50 nM free biotin-Bf560 solution in 50 mM Na-phosphate containing 650 mM NaCl was measured using excitation at 560 nm (2.5 nm slit) and emission was collected at 578 nm (5 nm slit). Continuous stirring (setting low) was used throughout the analysis. After 100 sec measurement, the protein under study was added to final biotin-binding subunit concentration 50 nM and the measurement was continued for 500 sec. […]
A one-phase dissociation model was used to analyse the data, as described elsewhere (Hytönen et al., (2004) Biochem J, in press). The dissociation rate constant (kdiss) was determined by fitting the equation −kdisst=ln(B/Bo) to the data. Bo is the measured maximum binding (100%) determined as the difference between the fluorescence of the free dye and the fluorescence of the protein-dye complex, and B is the amount of complex measured as a function of time. The first 500 seconds were omitted from the data to abolish the effect of the fast initial phase characteristic of avidin-BF560-biotin interaction (FIG. 9). The fraction of fluorescent biotin released after one-hour was determined, as well as the times of half-maximal (t½) and quarter-maximal (t¼) release. For dual chain avidins with modified binding sites, it was hypothesized that 50% of the binding sites would behave like those of wt avidin (cpAvd5S4 binding site of dcAvd was not modified). The dissociation data measured for wt avidin divided by two was subtracted from the data measured for the modified dual chain avidins and the dissociation curve was fitted to the difference as above.

[2] = Radiobiotin dissociation assay; assay type: binding; details: various temperatures
Description: FIG. 11. Radiobiotin dissociation assay for scAvd. Temperature-dependence of biotin dissociation rates measured by the [3H]biotin dissociation assay. Dissociation rate constant of radiobiotin was determined at various temperatures. The dissociation rate constants determined previously for avidin and streptavidin are also shown. The determined kdiss-values are connected by lines.
Radiobiotin assay was performed for scAvd in various temperatures.

[3] = Microplate temperature stability assay; assay type: physicochemical
Description: FIG. 13. Temperature sensitivity determined by microplate assay. The avidin, dcAvd and scAvd sample is treated with the indicated temperature for certain time and the ability to bind biotinylated alkaline phosphatase was determined by coating the microplate with the sample.
The stability of the protein was studied by microplate assay as described in the article by Nordlund et al., (2003) J Biol Chem 278, 2479-83. In this assay, 50 mM Na—PO4 buffer containing 100 mM NaCl was used and the protein was heated to 80° C. or 90° C. for certain time. After that, the capacity to bind fluorescent biotin was measured as described in the article by Nordlund et al., (2003) J Biol Chem 278, 2479-83.

[4] = Free biotin-binding sites by quenching of intrinsic fluorescence on biotin titration
Description: The number of free binding sites was determined based on the quenching of the intrinsic fluorescence of avidin due to binding of biotin (Laitinen et al., (2003) J. Biol. Chem. 278, 4010-4014). The protein sample under study diluted to 2 ml volume in 50 mM NaPO4 pH 7.0+650 mM NaCl was titrated with 1 μl additions of 70 μM biotin solution in the same buffer. The protein concentration in this assay was 500±15 nM, and the concentration was determined by comparing the emission intensity averaged over 340-350 nm (excitation at 280 nm) to avidin standard sample. The protein sample was continuously mixed by magnetic stirrer.
Intensity from each biotin concentration was averaged over eight second measurement. The end-point of the quenching was determined by fitting a line to obtained data and determining the total quenching by averaging the last three measured intensities (FIG. 12, Table 6).

quenching measured for whole emission spectrum (290-500 nm) due to biotin binding ([4]; 290-500 nm): 39.7%
Fluorescence quenching (350 nm) ([4]; intrinsic fluorescence, emission 350 nm, due to binding of biotin): 44.4%
Number of free biotin-binding sites per quaternary unit ([4]; protein 500±15 nM, titrated with biotin): 3.2
B1: scAvd: single-chain avidin, two dcAvd fused tail-to-head via 12 amino-acid linker GGSGSGSGSGSG (SEQ ID NO:24) (protein, listed as Gallus gallus)
chain: MVHATSPLLLLLLLSLALVAPGLSARKRTQPTFGFTVNWKFSESTTVFTGQCFIDRNGKEVLKTMWLLRSSVNDIGDDWKATRVGINIFTRLRTQKEGGSGGSARKCSLTGKWTNDLGSNMTIGAVNSRGEFTGTYITAVTATSNEIKESPLHGTQNTINKSGGSTTVFTGQCFIDRNGKEVLKTMWLLRSSVNDIGDDWKATRVGINIFTRLRTQKEGGSGGSARKCSLTGKWTNDLGSNMTIGAVNSRGEFTGTYITAVTATSNEIKESPLHGTQNTINKRTQPTFGFTVNWKFSEGGSGSGSGSGSGRTQPTFGFTVNWKFSESTTVFTGQCFIDRNGKEVLKTMWLLRSSVNDIGDDWKATRVGINIFTRLRTQKEGGSGGSARKCSLTGKWTNDLGSNMTIGAVNSRGEFTGTYITAVTATSNEIKESPLHGTQNTINKSGGSTTVFTGQCFIDRNGKEVLKTMWLLRSSVNDIGDDWKATRVGINIFTRLRTQKEGGSGGSARKCSLTGKWTNDLGSNMTIGAVNSRGEFTGTYITAVTATSNEIKESPLHGTQNTINKRTQPTFGFTVNWKFSE
Dissociation of fluorescent biotin Release 1 h ([1]; 25° C.): 8.8%
Dissociation of fluorescent biotin kdiss ([1]; 25° C.): 1.3e-05 s⁻¹
Dissociation of fluorescent biotin Release 1 h ([1]; 50° C.): 62.3%
Dissociation of fluorescent biotin kdiss ([1]; 50° C.): 0.00025 s⁻¹
dissociation of [3H]biotin [2]: extremely slow dissociation of [3H]biotin
activity after 32 min treatment ([3]; 80° C., 32 min): 26%
heat inactivation ([3]; 90° C.): fast denaturation
heat inactivation ([3]; 100° C.): fast inactivation
